Molecular target: full-length, relipidated human tissue factor (UniProt P13726)
Sequence (P13726 33-295): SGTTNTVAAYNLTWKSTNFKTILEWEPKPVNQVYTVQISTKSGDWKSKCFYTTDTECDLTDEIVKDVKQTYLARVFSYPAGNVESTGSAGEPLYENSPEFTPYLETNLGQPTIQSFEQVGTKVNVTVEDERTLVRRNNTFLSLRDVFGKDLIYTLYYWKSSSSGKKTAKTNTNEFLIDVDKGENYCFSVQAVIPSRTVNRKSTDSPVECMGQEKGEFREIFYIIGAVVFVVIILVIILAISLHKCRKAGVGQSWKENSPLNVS

Substance: rFVIIa(K62E)-FFR
- prolongation of the clotting time of human and rabbit plasma (FIG. 6): rFVIIa(K62E)-FFR is a superior inhibitor of coagulation versus both rFVIIa(wt)-FFR and pdFVIIa-FFR at molar ratios of inhibitor:plasma FVII as low as 0.25:1 in both human and rabbit plasma
